{"source": "patent US20220380421", "system": "GST-AcrIIA16_Lmo", "data": [{"substance": "Myc-tagged SpyCas9-sgRNA", "values": [{"measurement": "target DNA cleavage by SpyCas9 co-immunoprecipitated with the Acr", "result": "SpyCas9 co-purified with AcrIIA16Lmo is not inhibited"}]}]}
